Measured values taken from PMC7393355, “A FRET-based screening method to detect potential inhibitors of the binding of CNNM3 to PRL2” (Scientific Reports, 2020).

System: binding of CNNM3-YPet and CyPet-PRL2 (CNNM3-PRL2 complex)
Experiment: FRET-based inhibition test of the binding of CNNM3-YPet and CyPet-PRL2
Design: species or system human
Conditions: CNNM3-YPet 200 nM, CyPet-PRL2 200 nM, n = 6; for FRET intensity abolished / inhibition of complex formation: pre-incubated 20 min R.T. with binding partner, TBS pH 8.0, mean
Method: FRET measurements were conducted in TBS (50 mM Tris–HCl (pH 8.0) and 150 mM NaCl). Proteins were mixed in 96-well plates and incubated at R.T. for 1 h. Fluorescence intensities were measured using an excitation wavelength of 435 nm and an emission wavelength of 530 nm with a Cytation 3 (BioTek).
The emission spectra were measured with each component at 200 nM using the Cytation 3 (BioTek) with 435 nm excitation (Supplementary Fig. 2), and the original data are shown in Supplementary Table 1. The FRET intensity was calculated by Eq. (1).1 IFRET=IA-raw-Dleakage-Adirect where IA-raw is the intensity measured at 530 nm with 435 nm excitation, Dleakage is the leakage of the donor emission into the acceptor wavelength (530 nm) upon donor excitation, and Adirect is the direct excitation of the acceptor with the donor wavelength (435 nm).
The inhibition of complex formation was assayed by pre-incubating the binding partner (200 nM) with inhibitory factors (1, 10 μM) for 20 min at R.T., followed by addition of the other protein (200 nM) (Figs. 3B, 4C). The effects of divalent cations (10 mM) and nucleotides (3 mM) were also assayed similarly (Fig. 5).
The peptides for the peptide inhibition test were synthesized by Shanghai Dechi Biosciences (Fig. 6C,D). The peptide sequences were as follows: peptide 1, IVQKVNNEGEGDPFYEVLG; peptide 2, […] (an S–S bond was formed between the cysteine residues, as verified by HPLC and mass spectrometry). The peptides were dissolved in TBS buffer at 10 mM before use.
FRET data were evaluated by subtracting backgrounds (fluorescence intensities of CyPet-PRL2, CNNM3-YPet and a blank well). All data analysis was performed using GraphPad Prism 6 (GraphPad Software) with the methods described in each legend.

Row | Molecule | FRET intensity abolished / inhibition of complex formation (inhibitory protein 1 μM) [%] | FRET intensity abolished / inhibition of complex formation (inhibitory protein 10 μM) [%] | effect of added protein on FRET intensity (in words) (inhibitory protein 1 and 10 μM)
1 | PRL2: purified non-fluorescence protein-tagged human PRL2 (residues 1–167) (protein, left off: His tag (from the vector pET28a and the Ni-NTA purification), end not stated, state not stated) MNRPAPVEISYENMRFLITHNPTNATLNKFTEELKKYGVTTLVRVCDATYDKAPVEKEGIHVLDWPFDDGAPPPNQIVDDWLNLLKTKFREEPGCCVAVHCVAGLGRAPVLVALALIECGMKYEDAVQFIRQKRRGAFNSKQLLYLEKYRPKMRLRFRDTNGHCCVQ | 85.5 | 89.7 | 
2 | non-YPet-tagged CNNM3: purified non-fluorescence-tagged CBS domain of human CNNM3 (protein, left off: His tag (from the vector pET28a and the Ni-NTA purification), end not stated, state not stated) YSDLSKGVLRCRTVEDVLTPLEDCFMLDASTVLDFGVLASIMQSGHTRIPVYEEERSNIVDMLYLKDLAFVDPEDCTPLSTITRFYNHPLHFVFNDTKLDAVLEEFKRGKSHLAIVQKVNNEGEGDPFYEVLGLVTLEDVIEEIIRSEILDE | 77.7 | 89.2 | 
3 | CNNM3 CBS domain D426A mutant: CNNM3 CBS domain with D426A mutation at the PRL2-binding site (protein, left off: His tag (from the vector pET28a and the Ni-NTA purification), end not stated, state not stated) YSDLSKGVLRCRTVEDVLTPLEDCFMLDASTVLDFGVLASIMQSGHTRIPVYEEERSNIVDMLYLKDLAFVDPEDCTPLSTITRFYNHPLHFVFNDTKLDAVLEEFKRGKSHLAIVQKVNNEGEGAPFYEVLGLVTLEDVIEEIIRSEILDE |  | 12.9 | little effect on the FRET intensity
4 | PRL1: purified non-fluorescence protein-tagged human PRL1 (protein) MARMNRPAPVEVTYKNMRFLITHNPTNATLNKFIEELKKYGVTTIVRVCEATYDTTLVEKEGIHVLDWPFDDGAPPSNQIVDDWLSLVKIKFREEPGCCIAVHCVAGLGRAPVLVALALIEGGMKYEDAVQFIRQKRRGAFNSKQLLYLEKYRPKMRLRFKDSNGHRNNCCIQ | 61.6 | 90.0 | 
